Test results reported in US20210238276A1 (INTEGRAL MOLECULAR, published 2021).

Experiments:
Assay in all cases: flow cytometry, alanine-scan library in HEK-293T, with cytochalasin B
hsGLUT4 P66A = target: T1, hsGLUT4 P66A (human, UniProt P14672 1-509)
T1 sequence: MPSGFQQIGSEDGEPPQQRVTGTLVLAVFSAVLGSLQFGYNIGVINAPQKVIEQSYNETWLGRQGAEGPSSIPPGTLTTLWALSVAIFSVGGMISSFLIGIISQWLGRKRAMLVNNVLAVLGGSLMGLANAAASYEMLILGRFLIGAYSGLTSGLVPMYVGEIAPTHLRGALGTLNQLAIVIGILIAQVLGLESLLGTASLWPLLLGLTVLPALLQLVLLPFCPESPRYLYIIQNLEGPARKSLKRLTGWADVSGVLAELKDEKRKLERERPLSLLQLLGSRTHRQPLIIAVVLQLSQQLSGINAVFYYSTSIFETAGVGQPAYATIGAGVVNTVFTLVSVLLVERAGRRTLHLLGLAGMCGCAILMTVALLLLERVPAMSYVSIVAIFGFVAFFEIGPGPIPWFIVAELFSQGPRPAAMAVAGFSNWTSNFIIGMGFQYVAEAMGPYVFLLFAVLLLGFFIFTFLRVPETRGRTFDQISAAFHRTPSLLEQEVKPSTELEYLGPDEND
Summary of the method: (§1)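 HEK-293T cells expressing individual GLUT4 alanine mutants were stained 48 h post-transfection with anti-GLUT4 scFv MAbs (2 μg/ml), then biotinylated secondary and streptavidin-PerCP, and read by high-throughput flow cytometry. Where used, cytochalasin B (10 uM final) was given for 30 min before and during primary antibody staining.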

hsGLUT4 R169A = target: T2, hsGLUT4 R169A (human, UniProt P14672 1-509)
T2 sequence: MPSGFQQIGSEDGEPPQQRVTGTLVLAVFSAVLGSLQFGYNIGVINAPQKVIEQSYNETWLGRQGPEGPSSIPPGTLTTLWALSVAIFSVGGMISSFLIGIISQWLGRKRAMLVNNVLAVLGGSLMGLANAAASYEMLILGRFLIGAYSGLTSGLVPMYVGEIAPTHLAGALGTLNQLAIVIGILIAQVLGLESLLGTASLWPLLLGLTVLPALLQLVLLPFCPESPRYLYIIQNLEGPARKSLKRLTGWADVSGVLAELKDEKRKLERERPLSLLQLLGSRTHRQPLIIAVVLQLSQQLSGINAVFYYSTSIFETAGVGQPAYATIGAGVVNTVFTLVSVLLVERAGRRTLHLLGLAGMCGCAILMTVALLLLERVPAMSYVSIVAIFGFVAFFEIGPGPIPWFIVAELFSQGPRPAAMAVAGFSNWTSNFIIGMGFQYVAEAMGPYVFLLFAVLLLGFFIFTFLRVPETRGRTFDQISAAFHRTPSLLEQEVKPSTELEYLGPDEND
Summary of the method: as §1

hsGLUT4 F307A = target: T3, hsGLUT4 F307A (human, UniProt P14672 1-509)
T3 sequence: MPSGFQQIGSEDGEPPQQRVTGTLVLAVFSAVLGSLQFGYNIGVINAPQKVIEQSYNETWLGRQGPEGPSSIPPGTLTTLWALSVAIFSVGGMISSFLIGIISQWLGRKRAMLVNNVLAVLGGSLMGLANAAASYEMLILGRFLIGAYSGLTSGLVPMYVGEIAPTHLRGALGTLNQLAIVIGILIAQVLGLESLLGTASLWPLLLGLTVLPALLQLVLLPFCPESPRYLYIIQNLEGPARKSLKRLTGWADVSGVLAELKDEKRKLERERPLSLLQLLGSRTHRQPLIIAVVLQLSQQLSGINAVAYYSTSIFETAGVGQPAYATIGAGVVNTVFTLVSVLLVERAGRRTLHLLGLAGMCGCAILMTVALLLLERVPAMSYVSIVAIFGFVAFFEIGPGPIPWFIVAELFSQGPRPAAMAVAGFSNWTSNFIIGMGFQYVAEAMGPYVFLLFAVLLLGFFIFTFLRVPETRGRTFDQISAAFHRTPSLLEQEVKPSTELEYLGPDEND
Summary of the method: as §1

hsGLUT4 G348A = target: T4, hsGLUT4 G348A (human, UniProt P14672 1-509)
T4 sequence: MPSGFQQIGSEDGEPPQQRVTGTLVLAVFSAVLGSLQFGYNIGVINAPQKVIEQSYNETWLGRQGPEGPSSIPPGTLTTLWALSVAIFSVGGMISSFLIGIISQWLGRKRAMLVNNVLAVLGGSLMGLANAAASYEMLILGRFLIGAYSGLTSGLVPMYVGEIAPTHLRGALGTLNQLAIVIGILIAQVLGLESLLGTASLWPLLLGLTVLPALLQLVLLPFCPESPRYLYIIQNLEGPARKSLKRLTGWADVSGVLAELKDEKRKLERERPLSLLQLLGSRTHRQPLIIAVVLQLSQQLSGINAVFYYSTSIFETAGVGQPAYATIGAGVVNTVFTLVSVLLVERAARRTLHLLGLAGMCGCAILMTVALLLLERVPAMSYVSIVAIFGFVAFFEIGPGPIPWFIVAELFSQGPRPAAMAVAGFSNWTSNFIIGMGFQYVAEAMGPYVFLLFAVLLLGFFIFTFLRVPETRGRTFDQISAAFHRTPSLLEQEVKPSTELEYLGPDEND
Summary of the method: as §1

B1: AB102 (Fc fusion)
scFv: ALTQPSSVSANLGGTVKITCSGGGSYGYGWYQQKSPGSAPVTVIYSNDQRPSDIPSRFSGSKSGSTATLTITGVRAEDEAIYYCGSTDSDYVGIFGAGTTLTVLGQSSRSSGGGGSSGGGGSAVTLDESGGGLQTPGGTLSLVCKASGFDFSSYATIWVRQAPGKGLEWVAGISGTGTGSSTGYAPAVKGRATISRDNGQSTVRLQLNNLRAEDTGSYFCAKSTGYGDSWIYPDSIDAWGHGTEVIVSS
notes: also called MAb AB102; not shown: Fc fragment of human IgG1, cloned in frame with the scFv
- % of binding to wild type GLUT4 (hsGLUT4 P66A): 97%
- % of binding to wild type GLUT4 (hsGLUT4 R169A): 77%
- % of binding to wild type GLUT4 (hsGLUT4 F307A): 22%
- % of binding to wild type GLUT4 (hsGLUT4 G348A): 79%
